Article PMC6152381, “The C5 Variant of the Butyrylcholinesterase Tetramer Includes a Noncovalently Bound 60 kDa Lamellipodin Fragment” (Molecules : A Journal of Synthetic Chemistry and Natural …, 2017)

Legend:
[1] = molecular target: mouse anti-human BChE monoclonal antibody B2 18-5 (mouse); test: capture on immobilised antibody, activity assay of the unbound supernatant; hupresin-purified BChE (C4 and C5) in 0.02 M procaine, 0.02 M TrisCl pH 7.5 rotated with 0.04 mL B2 18-5 Sepharose beads at room temperature for 4 h
Chain of mouse anti-human BChE monoclonal antibody B2 18-5 (mouse) (heavy, as listed by the source, chain 1 of 2): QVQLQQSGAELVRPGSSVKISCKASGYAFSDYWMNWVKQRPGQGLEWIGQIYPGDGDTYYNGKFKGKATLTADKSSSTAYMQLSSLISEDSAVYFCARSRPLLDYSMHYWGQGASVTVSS
Chain of mouse anti-human BChE monoclonal antibody B2 18-5 (mouse) (light, as listed by the source, chain 2 of 2): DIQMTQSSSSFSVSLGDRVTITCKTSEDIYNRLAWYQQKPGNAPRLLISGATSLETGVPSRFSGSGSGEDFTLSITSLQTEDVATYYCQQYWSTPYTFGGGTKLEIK

[2] = molecular target: the molecule itself; test: native gel or EMSA; pure human BChE from Cohn Fraction IV-4 on a 4-30% nondenaturing polyacrylamide gradient gel, 4 °C, stained for BChE activity

| Molecule | percent bound [1] [%] | binding result [2] |
| --- | --- | --- |
| human butyrylcholinesterase (BChE) (from UniProt P06276 29-602) (enzyme) | 97 | – |
| human butyrylcholinesterase (BChE) (enzyme, human (endogenous in plasma), UniProt P06276 29-602, looked up, 9 N-linked glycans, each subunit has 574 amino acids; forty residues at the C-terminus are the tetramerization domain; also called C4; BChE tetramer; source: also purified from Cohn Fraction IV-4 (Q-ceramic ion exchange, hupresin)) EDDIIIATKNGKVRGMNLTVFGGTVTAFLGIPYAQPPLGRLRFKKPQSLTKWSDIWNATKYANSCCQNIDQSFPGFHGSEMWNPNTDLSEDCLYLNVWIPAPKPKNATVLIWIYGGGFQTGTSSLHVYDGKFLARVERVIVVSMNYRVGALGFLALPGNPEAPGNMGLFDQQLALQWVQKNIAAFGGNPKSVTLFGESAGAASVSLHLLSPGSHSLFTRAILQSGSFNAPWAVTSLYEARNRTLNLAKLTGCSRENETEIIKCLRNKDPQEILLNEAFVVPYGTPLSVNFGPTVDGDFLTDMPDILLELGQFKKTQILVGVNKDEGTAFLVYGAPGFSKDNNSIITRKEFQEGLKIFFPGVSEFGKESILFHYTDWVDDQRPENYREALGDVVGDYNFICPALEFTKKFSEWGNNAFFYYFEHRSSKLPWPEWMGVMHGYEIEFVFGLPLERRDNYTKAEEILSRSIVKRWANFAKYGNPNETQNNSTSWPVFKSTEQKYLTLNTESTRIMTKLRAQQCRFWTSFFPKVLEMTGNIDEAEWEWKAGFHRWNNYMMDWKNQFNDYTSKKESCVGL | – | binds |
